Laboratory results reported in patent US12030920 (IN3BIO, dated 2024).

Target: the molecule itself
Assay: self-assembly of CT-B subunits, pH shift, SDS-PAGE and Western blot

B1: native CT-B protein (other)
chain: TPQNITDLCAEYHNTQIYTLNDKIFSYTESLAGKREMAIITFKNGAIFQVEVPGSQHIDSQKKAIERMKDTLRIAYLTEAKVEKLCVWNNKTPHAIAAISMAN
  binding result: binds
